Test results: the supplement of paper PMC10724198
± gives the standard deviation of the averaged measurements.

Tested on: Saccharomyces cerevisiae
Experiment: protein stability index of tFT-peptide fusion (C-terminal peptide) (PSI (0-1 scale)); higher = more stable (slower turnover)
Settings: genetic background: doa10 deletion; temperature: 30 C
Protocol: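 MPS profiling in S. cerevisiae of the tFT-X12 degron library: putative degron peptides plus stable controls, 12 aa, fused to the C-terminus of a sfGFP-mCherry timer. Cells are FACS-sorted into 8 mCherry/sfGFP bins and deep-sequenced. PSI runs from 0 (unstable) to 1 (stable). Backgrounds are wild type, das1Δ and doa10Δ at 30 °C, and wild type, das1Δ, cdc34-1 and cdc53-1 at 37 °C; 2-3 technical replicates each.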
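Further: PSI is a weighted mean of sequencing reads over stability bins, variants kept only with over 10 reads, mCherry proximal and sfGFP distal, peptide attached via GGGS linker.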

Sequence	protein stability index
SRRRRLVSKFLA	0.141 ± 0.019
SRRSIGAYLFVS	0.178 ± 0.013
SRSFWHAIVFLA	0.0822 ± 0.036
SRWMWFDWLRRA	0.281 ± 0.012
SSCFLLFRVVWR	0.292 ± 0.005
SSFDFVVSLCIY	0.347 ± 0.019
STSSVMVFLRMC	0.14 ± 0.003
SVAGFFLLLLLS	0.191 ± 0.0079
SVECLCLFVACR	0.155 ± 0.0075
SVFGVRARFGSV	0.707 ± 0.046
SVFVVVVLVFWY	0.211 ± 0.018
SVIAYTKPLWFR	0.658 ± 0.02
SVLRCPVILLAY	0.0717 ± 0.0093
SVSFFSLCTSSL	0.521 ± 0.033
SWTAYSYQWVFF	0.0469 ± 0.0093
SWVSVLSELLAC	0.204 ± 0.0092
SYCFCCCVLFWG	0.325 ± 0.011
SYFSVTLFFTVI	0.252 ± 0.02
SYRFFLFLAVFV	0.442 ± 0.017
SYVFCYICGVQS	0.338 ± 0.031
SYVRLDLFFFLG	0.46 ± 0.038
TGVPNPSVAVMC	0.446 ± 0.019
TIYGYEVTRKIG	0.0795 ± 0.011
TLLAFLIYLCFL	0.402 ± 0.017
TPVIPLIRVRDC	0.171 ± 0.011
TTGLLPSAYIWS	0.677 ± 0.0094

Sequence	protein stability index
TVWRRIRHACAH	0.193 ± 0.0082
VAVYVGVGVSLG	0.2819 ± 0.0021
VAWFFFAYAFFM	0.251 ± 0.0032
VCALHSAPLLIF	0.307 ± 0.005
VCLVLVVVWWSG	0.1895 ± 0.0012
VCRGWCVVRYIL	0.173 ± 0.00096
VCVFNLTLVGTH	0.358 ± 0.028
VFFFFSLVNFRV	0.47 ± 0.05
VFFLFLVFLTVV	0.222 ± 0.011
VFFRCVCCLSVF	0.2533 ± 0.00085
VFFVLIFLLFLF	0.41 ± 0.0085
VFGSVAALRLLM	0.193 ± 0.007
VFLFSWYIFSVF	0.1066 ± 0.00012
VFLRCRSLSMRV	0.409 ± 0.019
VFMTLHCITIYK	0.338 ± 0.0065
VFSCFLFLVVLV	0.279 ± 0.012
VFVFLFVFLFLL	0.397 ± 0.098
VGCHISAFSDLI	0.66 ± 0.037
VGFIVCFFFSFG	0.3 ± 0.031
VGIVWELGCWMG	0.2794 ± 0.00095
VGTGVGEGGGVV	0.654 ± 0.018
VICVVLSKVFLF	0.416 ± 0.0083
VIGFGEVWIRCV	0.0708 ± 0.013
VILYCSNVAVCS	0.212 ± 0.004
VIVKSRTTLYIS	0.092 ± 0.018
VIWVLGALASWG	0.468 ± 0.02

Sequence	protein stability index
VKVIILYKIIEV	0.29 ± 0.0094
VLAYFCYVVFVI	0.291 ± 0.0044
VLCMSIFIVFGI	0.1774 ± 0.0013
VLLLLGGIVCVM	0.206 ± 0.012
VLLLRRPLLVFS	0.128 ± 0.017
VLLVRIFLCWVC	0.13 ± 0.0046
VLLYRIAPRLLH	0.181 ± 0.019
VLSLYWLIISRL	0.446 ± 0.021
VLVSVSLRVCMV	0.083 ± 0.012
VLVVLRSEVSLS	0.1948 ± 0.0011
VLVVVAFVALPR	0.275 ± 0.01
VLWSCCGGVRVR	0.452 ± 0.03
VLWVYLFLFVIF	0.235 ± 0.025
VLYSRFPPPLIA	0.396 ± 0.0062
VMWFVLVGLCIL	0.366 ± 0.0077
VNTLCCVFRCNL	0.8247 ± 0.0043
VPRGAALIFLCF	0.449 ± 0.025
VPRSLYSVLRLA	0.0744 ± 0.01
VPSPWLIRSLMS	0.224 ± 0.0045
VQLFCLRREMII	0.335 ± 0.0084
VRELGVGGWRRQ	0.11 ± 0.012
VRLLLIFRLLVI	0.2909 ± 0.0022
VRNYWKYVVIFP	0.578 ± 0.011
VSCFIVSFWVFL	0.309 ± 0.034
VSFEFSVLWTVF	0.384 ± 0.016
VSLCVVYGLVVG	0.2523 ± 0.0025

Same assay, conditions: genetic background: wild type; temperature: 30 C

Sequence	protein stability index
SRRRRLVSKFLA	0.161 ± 0.0082
SRRSIGAYLFVS	0.208 ± 0.018
SRSFWHAIVFLA	0.0959 ± 0.028
SRWMWFDWLRRA	0.295 ± 0.0095
SSCFLLFRVVWR	0.244 ± 0.026
SSFDFVVSLCIY	0.36 ± 0.013
STSSVMVFLRMC	0.124 ± 0.01
SVAGFFLLLLLS	0.193 ± 0.029
SVECLCLFVACR	0.184 ± 0.025
SVFGVRARFGSV	0.724 ± 0.018
SVFVVVVLVFWY	0.22 ± 0.029
SVIAYTKPLWFR	0.361 ± 0.016
SVLRCPVILLAY	0.078 ± 0.017
SVSFFSLCTSSL	0.507 ± 0.02
SWTAYSYQWVFF	0.0403 ± 0.018
SWVSVLSELLAC	0.238 ± 0.025
SYCFCCCVLFWG	0.357 ± 0.017
SYFSVTLFFTVI	0.272 ± 0.016
SYRFFLFLAVFV	0.44 ± 0.012
SYVFCYICGVQS	0.372 ± 0.018
SYVRLDLFFFLG	0.472 ± 0.026
TGVPNPSVAVMC	0.475 ± 0.028
TIYGYEVTRKIG	0.11 ± 0.021
TLLAFLIYLCFL	0.365 ± 0.028
TPVIPLIRVRDC	0.225 ± 0.02
TTGLLPSAYIWS	0.667 ± 0.028

Sequence	protein stability index
TVWRRIRHACAH	0.226 ± 0.015
VAVYVGVGVSLG	0.33 ± 0.017
VAWFFFAYAFFM	0.266 ± 0.026
VCALHSAPLLIF	0.362 ± 0.012
VCLVLVVVWWSG	0.201 ± 0.027
VCRGWCVVRYIL	0.18 ± 0.016
VCVFNLTLVGTH	0.343 ± 0.018
VFFFFSLVNFRV	0.419 ± 0.021
VFFLFLVFLTVV	0.195 ± 0.029
VFFRCVCCLSVF	0.264 ± 0.015
VFFVLIFLLFLF	0.353 ± 0.05
VFGSVAALRLLM	0.208 ± 0.042
VFLFSWYIFSVF	0.109 ± 0.03
VFLRCRSLSMRV	0.389 ± 0.013
VFMTLHCITIYK	0.348 ± 0.051
VFSCFLFLVVLV	0.169 ± 0.019
VFVFLFVFLFLL	0.2 ± 0.038
VGCHISAFSDLI	0.665 ± 0.032
VGFIVCFFFSFG	0.313 ± 0.026
VGIVWELGCWMG	0.303 ± 0.021
VGTGVGEGGGVV	0.649 ± 0.013
VICVVLSKVFLF	0.393 ± 0.02
VIGFGEVWIRCV	0.0831 ± 0.01
VILYCSNVAVCS	0.248 ± 0.023
VIVKSRTTLYIS	0.107 ± 0.018
VIWVLGALASWG	0.479 ± 0.0059

Sequence	protein stability index
VKVIILYKIIEV	0.323 ± 0.027
VLAYFCYVVFVI	0.263 ± 0.011
VLCMSIFIVFGI	0.196 ± 0.011
VLLLLGGIVCVM	0.229 ± 0.018
VLLLRRPLLVFS	0.148 ± 0.024
VLLVRIFLCWVC	0.118 ± 0.016
VLLYRIAPRLLH	0.202 ± 0.023
VLSLYWLIISRL	0.42 ± 0.0056
VLVSVSLRVCMV	0.108 ± 0.024
VLVVLRSEVSLS	0.22 ± 0.02
VLVVVAFVALPR	0.282 ± 0.032
VLWSCCGGVRVR	0.483 ± 0.0067
VLWVYLFLFVIF	0.211 ± 0.019
VLYSRFPPPLIA	0.415 ± 0.023
VMWFVLVGLCIL	0.378 ± 0.018
VNTLCCVFRCNL	0.826 ± 0.028
VPRGAALIFLCF	0.464 ± 0.023
VPRSLYSVLRLA	0.0833 ± 0.0025
VPSPWLIRSLMS	0.278 ± 0.026
VQLFCLRREMII	0.365 ± 0.019
VRELGVGGWRRQ	0.129 ± 0.012
VRLLLIFRLLVI	0.267 ± 0.038
VRNYWKYVVIFP	0.569 ± 0.023
VSCFIVSFWVFL	0.323 ± 0.031
VSFEFSVLWTVF	0.383 ± 0.017
VSLCVVYGLVVG	0.289 ± 0.022
